The results in this text go back to patent US7799901B2, “Modulators of the function of FAS receptors and other proteins” (Yeda Research and Development Co. Ltd., priority 1995, dated 2010).

The experiment has as its target T1, p75 TNF receptor (Homo sapiens, UniProt P20333).
T1 construct: human p75 TNF receptor (p75-IC, residues 287-461); expressed in transfected cells; host or cells: SFY526 yeast
T1 sequence (P20333 287-461): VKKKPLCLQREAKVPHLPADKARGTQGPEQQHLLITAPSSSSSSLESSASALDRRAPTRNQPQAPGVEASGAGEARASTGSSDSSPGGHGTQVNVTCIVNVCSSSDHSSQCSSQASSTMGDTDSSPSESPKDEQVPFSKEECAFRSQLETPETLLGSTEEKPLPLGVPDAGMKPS
As to the kind of experiment: Two-hybrid test of MORT-1 binding (FIG. 1), p75 TNF receptor. As to conditions: p75-IC residues 287-461, FIG. 1. The text has this: To isolate proteins interacting with the intracellular domain of the FAS-R, the yeast two-hybrid system was used (Fields and Song, 1989). […] In this system, the genes for the candidate interacting proteins are cloned into separate expression vectors. In one expression vector, the sequence of the one candidate protein is cloned in phase with the sequence of the GAL4 DNA-binding domain to generate a hybrid protein with the GAL4 DNA-binding-domain, and in the other vector, the sequence of the second candidate protein is cloned in phase with the sequence of the GAL4 activation domain to generate a hybrid protein with the GAL4-activation domain. The two hybrid vectors are then co-transformed into a yeast host strain having a lacZ or HIS3 reporter gene under the control of upstream GAL4 binding sites. Only those transformed host cells (cotransformants) in which the two hybrid proteins are expressed and are capable of interacting with each other, will be capable of expressing the reporter gene. In the case of the lacZ reporter gene, host cells expressing this gene will become blue in color when X-gal is added to the cultures. […]
In FIG. 1, there is depicted the interaction of the proteins encoded by the Gal4 DNA binding domain and activation-domain constructs (pGBT9 and pGAD-GH) within transfected SFY526 yeasts as assessed by β-galactosidase expression filter assay. […]

B1: MORT-1: Mediator of Receptor-induced Toxicity; protein binding the intracellular domain of FAS-R, SEQ ID NO:2 (protein)
chain: VNQAPECRFGGGILGPLGKRRDLARASEPRTEGARRAGPQPRPLADPAMDPFLVLLHSVSSSLSSSELTELKFLCLGRVVKRKLERVQSGLDLFSMLLEQNDLEPGHTELLRELLASLRRHDLLRRVDDFEAGAAAGAAPGEEDLCAAFNVICDNVGKDWRRLARQLKVSDTKIDSIEDRYPRNLTERVRESLRIWKNTEKENATVAHLVGALRSCQMNLVADLVQEVQQARDLQNRSGAMSPMSWNSDASTSEAS
Regarding B1, the “binding to p75 TNF receptor in two-hybrid test” value is listed as “not”.
